Data as given in patent US20090068174A1, “THERAPEUTIC ALKALINE PROTEASE COMPOSITIONS AND USE IN FACILITATING THE TRANSPORT OF AGENTS ACROSS THE GASTROINTESTINAL MUCOSAL LINING” (Kansas University Medical Center Research Institute, Inc., priority 2007, published 2009).
Read-outs that look alike come from different tables or passages of the source.

B1: Alkaline Protease: Aspergillus oryzae alkaline protease (oryzin), SEQ ID NO: 2, purified from the protease powder of Example 1 (protein, listed as Aspergillus oryzae)
chain: MQSIKRTLLLLGAILPAVLGAPVQETRRAAEKLPGKYIVTFKPGIDEAKIQEHTTWATNIHQRSLERRGATGGDLPVGIERNYKINKFAAYAGSFDDATIEEIRKNEDVAYVEEDQIYYLDGLTTQKSAPWGLGSISHKGQQSTDYIYDTSAGEGTYAYVVDSGVNVDHEEFEGRASKAYNAAGGQHVDSIGHGTHVSGTIAGKTYGIAKKASILSVKVFQGESSSTSVILDGFNWAANDIVSKKRTSKAAINMSLGGGYSKAFNDAVENAFEQGVLSVVAAGNENSDAGQTSPASAPDAITVAAIQKSNNRASFSNFGKVVDVFAPGQDILSAWIGSSSATNTISGTSMATPHIVGLSLYLAALENLDGPAAVTKRIKELATKDWKDVKGSPNLLAYNGNA
B2: 26 kDa Protease: A. oryzae protease cloned recently by Novozyme, labeled the 26 kDa protease, SEQ ID NO: 3 (protein, listed as Aspergillus oryzae)
chain: HASADAWASSKAISSTSSPSSFKMRFISVSSLLLALAPALNAVPVEVAGSAQGLDVTLSQVGNTRIKAWKNTGSEDVTFVHLNFFKDAAPVQKVSLFRNATEVQFQGIKQRLITEGLSDDALTTLAPGATIEDEFDIASTSDLSEGGTITINSNGLVPITTDNKVTGYIPFTSNELSIDVDAAEAASVTQAVKILERRTKVTSCSGSRLSALQTALRNTVSLARAAATAAQSGSSSRFQEYFKTTSSSTRSTVAARLNAVANEAASTSSGSTTYYCSDVYGYCSSNVLAYTLPSYNIIANCDLYYSYLPALTSTCHAQDQATTTLHEFTHAPGVYSPGTDDLGYGYSAATALSASQALLNADTYALFANAVNLNC

Experiments:
mouse recombinant IFN-γ = target: T1, mouse recombinant IFN-γ (Mus musculus, UniProt P01580); assay: Bioactivity of protease-treated mouse IFN-γ (NO production by C2C12 cells); type: cell-based
T1 sequence (P01580 23-155): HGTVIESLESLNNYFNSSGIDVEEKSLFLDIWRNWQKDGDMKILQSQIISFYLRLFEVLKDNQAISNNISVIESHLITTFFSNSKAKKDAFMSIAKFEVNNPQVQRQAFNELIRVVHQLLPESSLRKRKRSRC
Procedure: Effects of three purified A. oryzae proteases on the bioactivity of mouse IFN-γ: (A) protease powder prepared according to Example 1 (preparation); (B) alkaline protease; (C) 26 kDa protease; and (D) deuterolysin. 50 ng quantities of mouse recombinant IFN-γ were incubated for 24 hours at 37° C. with either buffer or 2.5-10 ng of the indicated protease: (∘) Buffer; (▴) 2.5 ng; ([…]) 5 ng; (▪) 10 ng. IFN-γ bioactivity was determined as conduction of NO production by C2C12 cells.
To evaluate the specificity of this effect, the three Aspergillus oryzae proteases were tested for their ability to inactivate mouse IFN-γ, and a different pattern was seen. […] This was an unexpected finding given the ability of alkaline protease to cause partial proteolysis of IFN-γ.

human IFN-γ = target: T2, human IFN-γ (Homo sapiens, UniProt P01579); assay: Human IFN-γ degradation (Western blotting); type: biochemical; details: Western blot, antibody to carboxyl terminus
T2 sequence (P01579 24-166): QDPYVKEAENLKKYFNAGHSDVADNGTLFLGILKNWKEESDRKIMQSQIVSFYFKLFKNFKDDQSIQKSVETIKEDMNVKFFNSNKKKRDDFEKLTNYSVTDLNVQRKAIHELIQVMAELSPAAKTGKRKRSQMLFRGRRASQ
Procedure: (§1) Effects of the purified A. oryzae proteases on human recombinant IFN-γ: (A) protease powder prepared according to Example 1 (preparation); (B) alkaline protease; (C) deuterolysin; and (D) 26 kDa protease. 50 ng quantities of human IFN-γ were incubated at 37° C. for 18 hours with the indicated quantities of preparation, alkaline protease, 26 kDa protease or deuterolysin. Western blotting was then used to determine substrate specificity. C=control, buffer-treated IFN-γ.
Cleavage was evidenced by the disappearance of the native 17 kDa IFN-γ band, rather than the appearance of distinct cleavage peptides. Because the antibody used in this Western blot was specific for the carboxyl terminus of human IFN-γ, these enzymes attack the cytokine at the C terminus (e.g., there is a loss in reactivity with the anti-cytokine antibody, rather than the appearance of smaller peptide products).

human TNF-α [1] = target: T3, human TNF-α (Homo sapiens, UniProt P01375); assay: Bioactivity of protease-treated human TNF-α in the C2C12 cell assay (nitrite); type: cell-based; parameters: key to Inactivation of Human TNF-α: +: Indicates that the protease inactivated the cytokine; ^a: Cleavage of the cytokine occurred without inactivation; details: for Effect on bioactivity of human TNF-α: C2C12 cells costimulated with mouse IFN-γ, nitrite
Procedure: Effects of purified A. oryzae proteases on the bioactivity of human TNF-α (A) protease powder prepared according to Example 1 (preparation); (B) alkaline protease; (C) 26 kDa protease; and (D) deuterolysin. 50 ng quantities of TNF-α were incubated at 37° C. for 24 hours with the indicated quantities (∘=buffer alone; […]=5 ng; ▪=10 ng) of: protease powder prepared according to Example 1 (preparation); alkaline protease; 26 kDa protease; and deuterolysin. The reactions were then stopped by addition of FBS and samples were added to C2C12 cells that had been costimulated with mouse IFN-γ. Twenty-four hours later, nitrite was measured in culture fluids.
Protease-treated human TNF-α was then tested for its bioactivity in the C2C12 cell assay. […] (FIG. 12A-D)
The protease powder prepared according to Example 1 inactivates mouse recombinant TNF-α by limited proteolysis. (FIG. 16 A-B) This property was established by measuring the loss of activity of TNF-α in a bioassay in which the cytokine was used to coactivate mouse myoblast C2C12 cells for the production of NO by transcriptional activation of the inducible NO synthase (iNOS) gene. The assay can be used to measure either TNF-α or IFN-γ activity by adding test samples containing one of the cytokines to cells stimulated with an excess of the other cytokine. Nitrite is a stable endproduct of NO produced by the cells. […] (FIG. 16A-B).

[2] = Table 4, cited from earlier work
mouse recombinant TNF-α = target: T4, mouse recombinant TNF-α (Mus musculus, UniProt P06804); assay: Cleavage of mouse TNF-α (Western blotting); type: biochemical; details: 100 ng cytokine, 37° C. overnight, Western blot
T4 sequence (P06804 80-235 limits assumed): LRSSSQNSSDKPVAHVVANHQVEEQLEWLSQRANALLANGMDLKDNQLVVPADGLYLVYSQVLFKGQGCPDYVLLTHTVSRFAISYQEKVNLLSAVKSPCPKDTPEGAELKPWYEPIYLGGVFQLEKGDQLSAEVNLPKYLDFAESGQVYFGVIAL
Procedure: Degradation of mouse recombinant TNF-α: (A) or IFN-γ (B) following treatment with: the protease powder prepared according to Example 1 (preparation), purified alkaline protease (AP); Pseudomonas elastase (E); and buffered-treated control (C). The cytokines (100 ng each) were incubated at 37° C. overnight with the indicated quantities (ng) of enzymes, and then analyzed by Western blotting for evidence of degradation. A scan of AP-treated mouse TNF-α (left-hand Western blot) showing the decreasing density of the top band as a function of alkaline protease concentration (C).
Because the anti-TNF-α used here was specific for an epitope located in the carboxyl terminus of the cytokine, the pattern of cleavage is most consistent with attack at the amino terminus of TNF-α (e.g., there is a loss of molecular mass without a loss of the epitope recognized by the antibody).

[3] = Table 1; cited from earlier work
human TNF-α [4] = target: T3, human TNF-α; assay: Human TNF-α hydrolysis (Western blotting); type: biochemical; details: 50 ng cytokine with 2.5, 5, 10 ng protease, overnight at 37° C., Western blot
Procedure: as §1, with “TNF-α:” for “IFN-γ:”, “26 kDa protease;” for “deuterolysin;”, “deuterolysin.” for “26 kDa protease.”, “TNF-α” for “human IFN-γ”, “protease powder prepared according to Example 1,” for “preparation,”, “TNF-α.” for “IFN-γ.”
Human TNF-α is cleaved and inactivated by Aspergillus oryzae alkaline protease. Purified cytokine (50 ng) was first combined with the following amounts [2.5, 5, and 10 ng] of protease powder prepared according to Example 1 (preparation), as well as alkaline protease, 26 kDa protease, and deuterolysin prepared according to Example 2. Each mixture was incubated overnight at 37° C. and examined by Western blotting for evidence of proteolysis. […] Because the antibody used in this Western blot was specific for the carboxyl terminus of human TNF-α, these enzymes cleaved the cytokine at the amino terminus yielding a smaller peptide that retained the C-terminal epitope.

T3 sequence (P01375 77-233 limits assumed): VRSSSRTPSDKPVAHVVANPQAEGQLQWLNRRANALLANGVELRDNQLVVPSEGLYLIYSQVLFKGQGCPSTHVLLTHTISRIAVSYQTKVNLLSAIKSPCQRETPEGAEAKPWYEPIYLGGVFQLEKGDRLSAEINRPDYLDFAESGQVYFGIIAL

Molecule	Effect on bioactivity of mouse IFN-γ (mouse recombinant IFN-γ)	Cleavage of human IFN-γ (human IFN-γ)	Effect on bioactivity of human TNF-α (human TNF-α [1])	Inactivation of Human TNF-α (human TNF-α [1]; Table 7 summary)	pI [2]	Heat stability ([2]; deuterolysin for 10 min, alkaline protease for 3 h)	Cleavage of mouse TNF-α (mouse recombinant TNF-α)	Heat stability (stable at) [3] [°C for 3 h]	pI [3]	Cleavage of human TNF-α (human TNF-α [4])
B1	did not significantly affect the activity of mouse IFN-γ	did not cleave human IFN-γ	selectively inactivated human TNF-α	+	6.53	Stable at 37 °C	evidenced the same substrate specificity	37	6.53	produced a similar pattern of cleavage
B2	primarily associated with the 26 kDa protease	cleave human IFN-γ	did not significantly alter the biological activity of the cytokine		6.72					to a lesser extent
